“And” between values parts separate entries of the source, which are not always exact repeats. Equal values may be shown once.

First the molecules themselves.
B1: Lysozyme C, P61626 (parent)
chain: MKALIVLGLVLLSVTVQGKVFERCELARTLKRLGMDGYRGISLANWMCLAKWESGYNTRATNYNAGDRSTDYGIFQINSRYWCNDGKTPGAVNACHLSCSALLQDNIADAVACAKRVVRDPQGIRAWVAWRNRCQNRDVRQYVQGCGV

Variants of B1 are the subject of the first data set. As to conditions: Homo sapiens; pH 2.61; Thermal; DSC; glycine 0.05 M; reversible: yes; structure 1LZ1; whole UniProt chain shown.
What is called Tm is the temperature at which the thermal transition is half complete. On to V92S, for which the Tm worked out at 62.1 °C, the “unfolding enthalpy (calorimetric)” value came to 105 kcal/mol and the “unfolding enthalpy (van 't Hoff)” value was 110 kcal/mol.
On to A50L, for which the Tm was determined as 63.1 °C, the “unfolding enthalpy (calorimetric)” value was found to be 94.9 kcal/mol and the “unfolding enthalpy (van 't Hoff)” value is 97.8 kcal/mol.

The data set is the same for the next values; noted with them: Homo sapiens; pH 2.7; 64.9 °C; Thermal; DSC; glycine 0.05 M; reversible: yes; structure 1LZ1; whole UniProt chain shown.
As for V92S, the “ddG of mutation (higher = less stable)” value is 0.38 kcal/mol.
For the variant R68G, the “ddG of mutation (higher = less stable)” value was -0.26 kcal/mol.
On the same count and under the same terms, in the case of Q76G it was -1.86 kcal/mol; in that of A50L, 0.1 kcal/mol; in that of V118F, 1.65 kcal/mol.

The same data set, now with this note: Homo sapiens; pH 2.7; Thermal; DSC; glycine 0.05 M; reversible: yes; structure 1LZ1; whole UniProt chain shown.
As for V92S, the Tm was 63.7 °C and 64.9 °C; the “change of melting temperature, mutant - wild type (higher = more stable)” value (“change of melting temperature, mutant” for short) was -1.2 °C; the “heat capacity change of unfolding” value stood at 1.22 kcal/mol/K; the “unfolding enthalpy (calorimetric)” value stood at 108 kcal/mol.
For R68G, the Tm was 65.8 °C and 64.9 °C; the “change of melting temperature, mutant” value is 0.9 °C; the “heat capacity change of unfolding” value is 1.46 kcal/mol/K; the “unfolding enthalpy (calorimetric)” value was found to be 100 kcal/mol.
On to N45L, for which the Tm was found to be 65.3 °C and the “change of melting temperature, mutant” value is 0.4 °C.
For Q76G, the “change of melting temperature, mutant” value was determined as 5.7 °C; the “heat capacity change of unfolding” value worked out at 1.34 kcal/mol/K; the “unfolding enthalpy (calorimetric)” value came out at 109 kcal/mol.
For the variant A50L, the Tm is 64.6 °C and 64.9 °C; the “change of melting temperature, mutant” value is -0.3 °C; the “heat capacity change of unfolding” value came to 1.27 kcal/mol/K; the “unfolding enthalpy (calorimetric)” value was found to be 98.2 kcal/mol.
As to V118F, the “change of melting temperature, mutant” value is -6.5 °C; the “heat capacity change of unfolding” value is 0.93 kcal/mol/K; the “unfolding enthalpy (calorimetric)” value turned out to be 87.2 kcal/mol.

The data set is the same for the next values; noted with them: Homo sapiens; pH 2.83; Thermal; DSC; glycine 0.05 M; reversible: yes; structure 1LZ1; whole UniProt chain shown.
For V92S, the Tm came to 66 °C, the “unfolding enthalpy (calorimetric)” value turned out to be 109 kcal/mol and the “unfolding enthalpy (van 't Hoff)” value amounted to 115 kcal/mol.
Take A50L: the Tm was found to be 66.9 °C, the “unfolding enthalpy (calorimetric)” value stood at 102 kcal/mol and the “unfolding enthalpy (van 't Hoff)” value was determined as 104 kcal/mol.
V118F: the Tm stood at 61 °C, the “unfolding enthalpy (calorimetric)” value stood at 84.6 kcal/mol and the “unfolding enthalpy (van 't Hoff)” value amounted to 92 kcal/mol.

Still in this data set, the particulars now being: Homo sapiens; pH 3.28; Thermal; DSC; glycine 0.05 M; reversible: yes; structure 1LZ1; whole UniProt chain shown.
For V92S, the Tm is 72.2 °C, the “unfolding enthalpy (calorimetric)” value is 117 kcal/mol and the “unfolding enthalpy (van 't Hoff)” value is 122 kcal/mol.

The same data set, now with this note: Homo sapiens; pH 2.58; Thermal; DSC; glycine 0.05 M; reversible: yes; structure 1LZ1; whole UniProt chain shown.
Turning to R68G, the Tm was found to be 63.7 °C, the “unfolding enthalpy (calorimetric)” value worked out at 99.9 kcal/mol and the “unfolding enthalpy (van 't Hoff)” value was found to be 111 kcal/mol.

The data set is the same for the next values; noted with them: Homo sapiens; pH 2.78; Thermal; DSC; glycine 0.05 M; reversible: yes; structure 1LZ1; whole UniProt chain shown.
With R68G, the Tm was determined as 67.3 °C, the “unfolding enthalpy (calorimetric)” value stood at 102 kcal/mol and the “unfolding enthalpy (van 't Hoff)” value came out at 114 kcal/mol.
In the same order, the values of Q76G are 72.5 °C, 119 kcal/mol and 127 kcal/mol.

The same data set, now with this note: Homo sapiens; pH 3.11; Thermal; DSC; glycine 0.05 M; reversible: yes; structure 1LZ1; whole UniProt chain shown.
With R68G, the midpoint of thermal melting (Tm) came to 73 °C, the “unfolding enthalpy (calorimetric)” value was 113 kcal/mol and the “unfolding enthalpy (van 't Hoff)” value was 123 kcal/mol.

The data set is the same for the next values; noted with them: Homo sapiens; pH 2.59; Thermal; DSC; glycine 0.05 M; reversible: yes; structure 1LZ1; whole UniProt chain shown.
Take Q76G: the Tm was determined as 68.3 °C, the “unfolding enthalpy (calorimetric)” value stood at 113 kcal/mol and the “unfolding enthalpy (van 't Hoff)” value was determined as 121 kcal/mol.

Still in this data set, the particulars now being: Homo sapiens; pH 3.15; Thermal; DSC; glycine 0.05 M; reversible: yes; structure 1LZ1; whole UniProt chain shown.
As to Q76G, the Tm came out at 78.7 °C, the “unfolding enthalpy (calorimetric)” value came out at 127 kcal/mol and the “unfolding enthalpy (van 't Hoff)” value stood at 135 kcal/mol.

Still in this data set, the particulars now being: Homo sapiens; pH 3.23; Thermal; DSC; glycine 0.05 M; reversible: yes; structure 1LZ1; whole UniProt chain shown.
A50L: the Tm is 73.2 °C, the “unfolding enthalpy (calorimetric)” value turned out to be 108 kcal/mol and the “unfolding enthalpy (van 't Hoff)” value came out at 111 kcal/mol.

The data set is the same for the next values; noted with them: Homo sapiens; pH 2.62; Thermal; DSC; glycine 0.05 M; reversible: yes; structure 1LZ1; whole UniProt chain shown.
For the variant V118F, the Tm is 56.8 °C, the “unfolding enthalpy (calorimetric)” value was 79.1 kcal/mol and the “unfolding enthalpy (van 't Hoff)” value came to 85.1 kcal/mol.

Still in this data set, the particulars now being: Homo sapiens; pH 3.26; Thermal; DSC; glycine 0.05 M; reversible: yes; structure 1LZ1; whole UniProt chain shown.
As for V118F, the Tm turned out to be 67.6 °C, the “unfolding enthalpy (calorimetric)” value came out at 89.4 kcal/mol and the “unfolding enthalpy (van 't Hoff)” value came out at 95.4 kcal/mol.

These data come from FireProtDB (doi:10.1093/protein/12.8.663).
